Data as given in paper doi:10.1101/2024.01.10.575067.

Target: tetra-Cys human GAPDH (TC-hGAPDH), bacterially expressed and purified (human) (UniProt P04406)
Experiment: SEC

Substance “tetra-Cys human GAPDH (TC-hGAPDH), bacterially expressed and purified (from UniProt P04406 1-335) (enzyme)” has a stoichiometry N of 4.
